Assay results: the supplement of paper PMC12636428

Test system: Saccharomyces cerevisiae
Assay: transcriptional activation domain activity (GFP:mCherry ratio, weighted mean of sorted bins, harmonized to initial dataset scale) (arbitrary fluorescence ratio units); higher = stronger transcriptional activation
Settings: beta-estradiol 1 µM; induction time 4 h
Summary of the method: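 The activation activity of each tile is the read-weighted mean of bin median fluorescence, averaged across its barcodes and mapped linearly onto the scale of the initial dataset. Tiles were fused to an estradiol-inducible synthetic transcription factor, barcoded, and integrated at URA3 in yeast diploids carrying a GFP reporter. Induction used 1 uM beta-estradiol in SC for 4 hours at 30 °C, after which cells were sorted into 8 GFP:mCherry bins, and any tile with fewer than 50 reads was dropped.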

Question: Which “transcriptional activation domain activity” value does the source give for “KKEEVKQEPTPAAAPEASTSDRGRGRGRGRGEGRGRGDGTRGRGRGGARPAGP” here?
Answer: 34900

Question: With “EHVHVNKIPVRVSHGSGFELMGKSSFIFKGFRSLGILMLIFWSKANHILIVTV” as the sequence, how does the “transcriptional activation domain activity” value read?
Answer: 70700

Question: “SQVIKILTLLFFFLNLLFFVLICAATVARYCMFPQLWPIMLNHPSQSLFIGAF” was tested. Which “transcriptional activation domain activity” value did it give?
Answer: 60600

Question: For “EAKKEGEHGAAPAGEHGAAPAAGGHGAEAKKEGEHGAAPAAGGHGAAPAAGGH”, which “transcriptional activation domain activity” value is on record?
Answer: 21300

Question: With “FVGNQAGCYNLVPVYDWIKRCIISIFVVFFISFLPLFLQELCERGVIRALYRL” as the sequence, how does the “transcriptional activation domain activity” value read?
Answer: 72800

Question: “FAGLSYFVYDLHTMLSSIVIICVIVADFLYFGSILLPALWLECPYRVPLLFRP” was tested. Which “transcriptional activation domain activity” value did it give?
Answer: 71900

Question: How did the “transcriptional activation domain activity” value turn out when “MASASLASKQSIRPHRKSRTGCSTCKRRKVKSLAVVGAGLGRSGQVTAGSPTG” was run?
Answer: 54100

Question: For “FLLSILFLLSFFYSFFSFSLFIFDRLCQFSHFVDLPSLHYLSLCVFLSILCLF”, which “transcriptional activation domain activity” value is on record?
Answer: 37100

Question: How did the “transcriptional activation domain activity” value turn out when “VAACLVNWDMKAAFVCVQSGNLKGVQALSALLGYVQIYYVQWLCAIVIAILYI” was run?
Answer: 60000

Question: For “MFLLVLYPILHLLFLPCKYQYFQIFIRLLSQLPLLFFFCNTFWFFSTSVFFLN”, which “transcriptional activation domain activity” value is on record?
Answer: 69600

Question: How did the “transcriptional activation domain activity” value turn out when “TPIFMLIRIMIIGAHGVYQTAYRIVTKTQWEDGREIEDVYTYVGNERIDIKIV” was run?
Answer: 28300

Question: How did the “transcriptional activation domain activity” value turn out when “ITQMQQTDFYHVDQDDYVHSFVIHNSRLMWNVAIRAIVMRFIELQSQASLLQY” was run?
Answer: 51800

Question: “FFELLGLFVFFVLFLVGAAIASTFWGDLFWCHSFWQCRVLTVLVAFAWMCWVL” was tested. Which “transcriptional activation domain activity” value did it give?
Answer: 46900

Question: With “CLLLAICCLYHVAFCIIVVLFWVAQVNAAPMEALQMVLAHVRYTFILSVSMVG” as the sequence, how does the “transcriptional activation domain activity” value read?
Answer: 63500

Question: With “EDSEPEPQPQKSQSRRRQSRGRGRRGGDSDNESVARSDVSASGGRRNRQRKQK” as the sequence, how does the “transcriptional activation domain activity” value read?
Answer: 22200

Question: “ARLLPDTIHLYILVVASLVNTLCVLFLDCCFLLLFFLFFYFFYPFLLFLFASF” was tested. Which “transcriptional activation domain activity” value did it give?
Answer: 41200

Question: “VLRMFFVSQANTFVILSLLGLCLPSRALPAAFGFSPSYAPLLIRLYLAQTLFT” was tested. Which “transcriptional activation domain activity” value did it give?
Answer: 25800

Question: Which “transcriptional activation domain activity” value does the source give for “GRRHCNYVQGWLWLSLFSYVCVTYVLSIYISMSFFFWNIAVFLFYFIFVGLLG” here?
Answer: 40500

Question: How did the “transcriptional activation domain activity” value turn out when “TSFVLYLKLNQVIAFSLRTIYSINKSKILLGFVGQQWEQHIVSELDSALNKWV” was run?
Answer: 37900

Question: Which “transcriptional activation domain activity” value does the source give for “MFWLSVSCYTYKIIRFYYADCGLVGVLKDQVQQCWIHLSYDLVYQYLPNLLNW” here?
Answer: 69400

Question: With “NFIIQGNSMISTPSGRNDLPDTSPMSSIQTASPPSQLLTDQGFADLDNFMSSL” as the sequence, how does the “transcriptional activation domain activity” value read?
Answer: 74500

Question: Which “transcriptional activation domain activity” value does the source give for “MLMIVVNDTIFYITVISHILLAYYGLVTIDNGLLLSNPTWYCPLNYTLIATCI” here?
Answer: 61700

Question: For “SRIRAKRIYTKLNLFFRSAFLSYTDFKQTIIVLVSLLKLSLNLWDIVKLMCPQ”, which “transcriptional activation domain activity” value is on record?
Answer: 47400

Question: “RMMREDYFPVARLFYCAFMLIHPHFEIPRFWQMGMHILHMLASLNYRPAILTM” was tested. Which “transcriptional activation domain activity” value did it give?
Answer: 68400

Question: “AVWGTGYGKYFVLVLCLFAGINITSCWVLIKYLGGLTWCTLFFKNRLLWINFV” was tested. Which “transcriptional activation domain activity” value did it give?
Answer: 60400

Question: Which “transcriptional activation domain activity” value does the source give for “VHLGVLFTLSIPYVRLWLIPRLFVCIFVRAFLFLLLFSGIVYPEFFFFFFFLR” here?
Answer: 40800

Question: For “YALEWNGLVVRSFAYHTVFGIAKVGFFLYHFLFSSFVFSLLLSLVIFFFFFFF”, which “transcriptional activation domain activity” value is on record?
Answer: 32600

Question: Which “transcriptional activation domain activity” value does the source give for “RKPESNEKTEGANGEGHDGTRRRQSTRGRGRAGRGRGGRARGERGEKKEEGAE” here?
Answer: 14100

Question: Which “transcriptional activation domain activity” value does the source give for “GCWGETWWYTMQFGALLAEGAAQHWLGLLEQKVLPWSRYGMMQKGLRRLFGYV” here?
Answer: 75600

Question: How did the “transcriptional activation domain activity” value turn out when “MEDAGDDATPATKKGKGMKKRKKGEESDGENEKPAKTPKTKLKLTNKTPKEAS” was run?
Answer: 36600

Question: How did the “transcriptional activation domain activity” value turn out when “MFLLAFCIQAEYQLKLLYMFFYFFCSYVSSLIVFVSYFGVLVVLAGLNCFFTY” was run?
Answer: 50300

Question: Which “transcriptional activation domain activity” value does the source give for “KGKGRENVPESESESEEDGDSSPPKAPVRGARGRGRGASRGRGRGRAPAPAAA” here?
Answer: < 6570

Question: How did the “transcriptional activation domain activity” value turn out when “RDANQCLELYPDIRILLVRLLEYPELMVITPIRMAIRCGLLYFSHLGSDRPQA” was run?
Answer: 58800

Question: How did the “transcriptional activation domain activity” value turn out when “FVEDPEMRRSIVRKFDWRVLTWMAGLSSYLRLWVLYRSSLTRLLMCLVLCINA” was run?
Answer: 69800

Question: With “PSLKCVSLTYDELVRIVAQLLQKAFFKRFPSLKERFYSLVLSFLKKAMVPTNK” as the sequence, how does the “transcriptional activation domain activity” value read?
Answer: 40500

Question: Which “transcriptional activation domain activity” value does the source give for “VVDYHTTYRRMIIVCLQSVLGLFRDMVEQFLGVIYTIYVLIRVFVVFPVWVIY” here?
Answer: 61200

Question: For “KFFVRHQHKLYYVILSLGRFNLHNLSFTYLFTAPRVRYRWLEIFGICVFFTWY”, which “transcriptional activation domain activity” value is on record?
Answer: 55900

Question: For “RKDKSRVEDSDSADSDAGHVNGNKAGEGEEGAAKKKRKRRHKKRVPDGEGASV”, which “transcriptional activation domain activity” value is on record?
Answer: 29700

Question: Which “transcriptional activation domain activity” value does the source give for “RSLQLSWSILLRFFKEHFCMDRLSLTIVDLGTLGSPLIRSERNGYLRRFFQVF” here?
Answer: 46700

Question: For “ILPRWIQVAITFVALLAVSCIVMVVGLIVKYWTLSVSFGHFLSRFAVLRYIVL”, which “transcriptional activation domain activity” value is on record?
Answer: 58500

Question: For “MVQNWEFFVFFFSFFIFSFCEVYMCAVCGLWCGSPGKLLGLLFLVLLCSLFFF”, which “transcriptional activation domain activity” value is on record?
Answer: 40300

Question: How did the “transcriptional activation domain activity” value turn out when “MLIILLSSLVLWRLGSPCFFYTLFLFYISERSISQLPPPPTLLSILFFFTFIA” was run?
Answer: 53100

Question: How did the “transcriptional activation domain activity” value turn out when “ILFFCLVANSDKLHMIIFAVVPIRCVFPVFFLIFEVIINCWLPLVWHLLYNLT” was run?
Answer: 43800

Question: Which “transcriptional activation domain activity” value does the source give for “DSNYLAFLKFDDLENEKFHSSASSISSPSYSSPSFSSYRNRKKSEFMDDESCT” here?
Answer: 73200

Question: With “LLGVGYAMVLAWFMCLFYLFPFLGALTLYFVMDVVDLASRTLYKLLHTLPILV” as the sequence, how does the “transcriptional activation domain activity” value read?
Answer: 52500

Question: For “MPGTCTLPYYSNLPIMLVLVLIRRSNYFFFLVSLTTGSFLTTFFSLFSVRLPL”, which “transcriptional activation domain activity” value is on record?
Answer: 67000

Question: How did the “transcriptional activation domain activity” value turn out when “RNLGKLCSLHIEIRDPDLHRWNLVTLILVVHTLKSPFLERVCISFATYANIYG” was run?
Answer: 42300

Question: How did the “transcriptional activation domain activity” value turn out when “KRCFSLFFFFFFSFLPFLFLFLSPYCLLNTFVPFSFSFLIYLILLLKFNLSAE” was run?
Answer: 48900

Question: “MLLTFFFPLYCTSSFRVTQFLYPFQTLLFTFVFQAYLLLFLLFLLLLLLCFSP” was tested. Which “transcriptional activation domain activity” value did it give?
Answer: 41000

Question: “LENTNNNGSNVNAATNDTSASTNNINNNNAICQSASLLNDPLETLDFTKCIFA” was tested. Which “transcriptional activation domain activity” value did it give?
Answer: 46900

Question: Which “transcriptional activation domain activity” value does the source give for “QEQEQEGMELGIKEGPADPRCKTCGRTEGTRKCTGCGRVRYCGRECQKKDWKV” here?
Answer: 29700

Question: With “FPEMITILIFTWSHNPLPHLVWHNQQECGSSLSTRFLCIFAVILCIWFVKRVF” as the sequence, how does the “transcriptional activation domain activity” value read?
Answer: 59700

Question: How did the “transcriptional activation domain activity” value turn out when “LLYLGCRWCTLIAIIFHFLGFDGGHRIDCQFMGYFSFTCASALIVLRIVAFWA” was run?
Answer: 66900

Question: How did the “transcriptional activation domain activity” value turn out when “IENFLSPSFLEFIPHLANEYGFDYELVTYKWPTWLIHQKEKQRLIWGYKILFL” was run?
Answer: 56800

Question: Which “transcriptional activation domain activity” value does the source give for “LEDNAAPASAPAAEEKPVEKAPEEKPEKKEEPQKEEPKKEDAKQAAPKSGASQ” here?
Answer: 46100

Question: Which “transcriptional activation domain activity” value does the source give for “RLAGGLRGLTGLEKEELRKRGWGLGWWMMRGAFYENITKAWIHTVTRKLKNKP” here?
Answer: 47300

Question: How did the “transcriptional activation domain activity” value turn out when “NSTIPLDFMPRDALHGFDWSEEDDMSDGLPFLKTDPNNNGFFGDGSLLCILRS” was run?
Answer: 109000

Question: Which “transcriptional activation domain activity” value does the source give for “EAVKKSAERRDSATKSTSPAPAKEEKKEEGKKPEKKEAKPDDKKGEEAGEDKG” here?
Answer: 10800

Question: With “MADVSSARINIDRAKQGRGLGRVATAGCSRDRILLIRSSHSVWRAACHLWAVP” as the sequence, how does the “transcriptional activation domain activity” value read?
Answer: 60500

Question: With “IFTSFLLFHDPTLFMFISYDIAYVWWVHLMERLIEPLPLMCCFLIMPMICFVI” as the sequence, how does the “transcriptional activation domain activity” value read?
Answer: 54400

Question: How did the “transcriptional activation domain activity” value turn out when “MVFFLYISLLIFFFTATIAALPCMVWWILAVHCWLFIFLDPLAFFYYSFFPFF” was run?
Answer: 26300
